Reference: US20250368745A1 (published 2025)
Where two headings read alike, the source gives them in different places.

T1: human IL-18BP (human, UniProt O95998 31-194)
T1 construct: UniProt printed as 095998; also called hIL-18BP
T1 sequence: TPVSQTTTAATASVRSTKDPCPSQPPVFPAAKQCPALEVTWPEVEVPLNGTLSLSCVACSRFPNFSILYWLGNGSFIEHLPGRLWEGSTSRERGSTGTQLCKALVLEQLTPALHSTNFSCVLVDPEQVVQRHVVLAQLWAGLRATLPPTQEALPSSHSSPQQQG

T2: cynomolgus IL-18BP (cynomolgus monkey)
T2 construct: also called cyno IL-18BP; cyIL-18BP
T2 chain: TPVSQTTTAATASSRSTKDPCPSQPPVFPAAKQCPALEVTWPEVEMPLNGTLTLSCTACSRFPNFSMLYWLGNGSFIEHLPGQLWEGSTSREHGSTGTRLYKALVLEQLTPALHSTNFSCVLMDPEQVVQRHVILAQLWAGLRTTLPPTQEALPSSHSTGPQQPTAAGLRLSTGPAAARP


Key:
Assay in all cases: BLI, apparent KD
human IL-18BP [1] = target: T1, human IL-18BP
cynomolgus IL-18BP = target: T2, cynomolgus IL-18BP
human IL-18BP [2] = target: T1, human IL-18BP; remark: listed apart in the source

Row | Binder | Kd (human IL-18BP [1]) [nM] | Kd (cynomolgus IL-18BP) [nM] | Kd (human IL-18BP [2]) [nM]
1 | SA301a HC-G97A (antibody, name in Kabat numbering, V domains shown, IgG1 kappa) VH: QVQLQESGPGLVKPSQTLSLTCTVSGYSITSDYNSHWIRQPPGKGLEWIGYIHYSGSTNYNPSLKSRVTISRDTSKNQFSLKLSSVTAADTAVYYCARNYASIYVNYFDYWGQGTLVTVSS VL: EIVLTQSPATLSLSPGERATLSCSASSSVSYMYWYQQKPGQAPRPLIYRTSNLASGIPARFSGSGSGTDFTLTISSLEPEDFAVYYCQQYHSYPTFGGGTKVEIK | 0.44 | – | –
2 | SA301a HC-Y100P (antibody, V domains shown) VH: QVQLQESGPGLVKPSQTLSLTCTVSGYSITSDYNSHWIRQPPGKGLEWIGYIHYSGSTNYNPSLKSRVTISRDTSKNQFSLKLSSVTAADTAVYYCARNYGSIPVNYFDYWGQGTLVTVSS VL: EIVLTQSPATLSLSPGERATLSCSASSSVSYMYWYQQKPGQAPRPLIYRTSNLASGIPARFSGSGSGTDFTLTISSLEPEDFAVYYCQQYHSYPTFGGGTKVEIK | – | 2.4 | 0.63
3 | SA301a HC-Y100T (antibody, V domains shown) VH: QVQLQESGPGLVKPSQTLSLTCTVSGYSITSDYNSHWIRQPPGKGLEWIGYIHYSGSTNYNPSLKSRVTISRDTSKNQFSLKLSSVTAADTAVYYCARNYGSITVNYFDYWGQGTLVTVSS VL: EIVLTQSPATLSLSPGERATLSCSASSSVSYMYWYQQKPGQAPRPLIYRTSNLASGIPARFSGSGSGTDFTLTISSLEPEDFAVYYCQQYHSYPTFGGGTKVEIK | – | 4.48 | 1.08
4 | SA301a HC-Y100E (antibody, V domains shown) VH: QVQLQESGPGLVKPSQTLSLTCTVSGYSITSDYNSHWIRQPPGKGLEWIGYIHYSGSTNYNPSLKSRVTISRDTSKNQFSLKLSSVTAADTAVYYCARNYGSIEVNYFDYWGQGTLVTVSS VL: EIVLTQSPATLSLSPGERATLSCSASSSVSYMYWYQQKPGQAPRPLIYRTSNLASGIPARFSGSGSGTDFTLTISSLEPEDFAVYYCQQYHSYPTFGGGTKVEIK | – | 1.64 | 0.61
5 | SA301a HC-Y100A (antibody, V domains shown) VH: QVQLQESGPGLVKPSQTLSLTCTVSGYSITSDYNSHWIRQPPGKGLEWIGYIHYSGSTNYNPSLKSRVTISRDTSKNQFSLKLSSVTAADTAVYYCARNYGSIAVNYFDYWGQGTLVTVSS VL: EIVLTQSPATLSLSPGERATLSCSASSSVSYMYWYQQKPGQAPRPLIYRTSNLASGIPARFSGSGSGTDFTLTISSLEPEDFAVYYCQQYHSYPTFGGGTKVEIK | – | 4.17 | 0.88
6 | SA301a HC-Y100Q (antibody, V domains shown) VH: QVQLQESGPGLVKPSQTLSLTCTVSGYSITSDYNSHWIRQPPGKGLEWIGYIHYSGSTNYNPSLKSRVTISRDTSKNQFSLKLSSVTAADTAVYYCARNYGSIQVNYFDYWGQGTLVTVSS VL: EIVLTQSPATLSLSPGERATLSCSASSSVSYMYWYQQKPGQAPRPLIYRTSNLASGIPARFSGSGSGTDFTLTISSLEPEDFAVYYCQQYHSYPTFGGGTKVEIK | – | 3.58 | 1.88
7 | SA301a HC-Y100D (antibody, V domains shown) VH: QVQLQESGPGLVKPSQTLSLTCTVSGYSITSDYNSHWIRQPPGKGLEWIGYIHYSGSTNYNPSLKSRVTISRDTSKNQFSLKLSSVTAADTAVYYCARNYGSIDVNYFDYWGQGTLVTVSS VL: EIVLTQSPATLSLSPGERATLSCSASSSVSYMYWYQQKPGQAPRPLIYRTSNLASGIPARFSGSGSGTDFTLTISSLEPEDFAVYYCQQYHSYPTFGGGTKVEIK | – | 3.65 | 0.56
8 | SA301a HC-Y100N (antibody, V domains shown) VH: QVQLQESGPGLVKPSQTLSLTCTVSGYSITSDYNSHWIRQPPGKGLEWIGYIHYSGSTNYNPSLKSRVTISRDTSKNQFSLKLSSVTAADTAVYYCARNYGSINVNYFDYWGQGTLVTVSS VL: EIVLTQSPATLSLSPGERATLSCSASSSVSYMYWYQQKPGQAPRPLIYRTSNLASGIPARFSGSGSGTDFTLTISSLEPEDFAVYYCQQYHSYPTFGGGTKVEIK | – | 3.59 | 0.9
9 | SA301a HC-Y100M (antibody, V domains shown) VH: QVQLQESGPGLVKPSQTLSLTCTVSGYSITSDYNSHWIRQPPGKGLEWIGYIHYSGSTNYNPSLKSRVTISRDTSKNQFSLKLSSVTAADTAVYYCARNYGSIMVNYFDYWGQGTLVTVSS VL: EIVLTQSPATLSLSPGERATLSCSASSSVSYMYWYQQKPGQAPRPLIYRTSNLASGIPARFSGSGSGTDFTLTISSLEPEDFAVYYCQQYHSYPTFGGGTKVEIK | – | 2.28 | 2.07
10 | SA301a HC-Y100F (antibody, V domains shown) VH: QVQLQESGPGLVKPSQTLSLTCTVSGYSITSDYNSHWIRQPPGKGLEWIGYIHYSGSTNYNPSLKSRVTISRDTSKNQFSLKLSSVTAADTAVYYCARNYGSIFVNYFDYWGQGTLVTVSS VL: EIVLTQSPATLSLSPGERATLSCSASSSVSYMYWYQQKPGQAPRPLIYRTSNLASGIPARFSGSGSGTDFTLTISSLEPEDFAVYYCQQYHSYPTFGGGTKVEIK | – | 0.26 | 0.1
11 | SA301a HC-Y100K (antibody, V domains shown) VH: QVQLQESGPGLVKPSQTLSLTCTVSGYSITSDYNSHWIRQPPGKGLEWIGYIHYSGSTNYNPSLKSRVTISRDTSKNQFSLKLSSVTAADTAVYYCARNYGSIKVNYFDYWGQGTLVTVSS VL: EIVLTQSPATLSLSPGERATLSCSASSSVSYMYWYQQKPGQAPRPLIYRTSNLASGIPARFSGSGSGTDFTLTISSLEPEDFAVYYCQQYHSYPTFGGGTKVEIK | – | 2.18 | 1.49
12 | SA301a HC-G97N (antibody, name in Kabat numbering, V domains shown, IgG1 kappa) VH: QVQLQESGPGLVKPSQTLSLTCTVSGYSITSDYNSHWIRQPPGKGLEWIGYIHYSGSTNYNPSLKSRVTISRDTSKNQFSLKLSSVTAADTAVYYCARNYNSIYVNYFDYWGQGTLVTVSS VL: EIVLTQSPATLSLSPGERATLSCSASSSVSYMYWYQQKPGQAPRPLIYRTSNLASGIPARFSGSGSGTDFTLTISSLEPEDFAVYYCQQYHSYPTFGGGTKVEIK | 5.93 | – | –
13 | SA301a HC-G97D (antibody, name in Kabat numbering, V domains shown, IgG1 kappa) VH: QVQLQESGPGLVKPSQTLSLTCTVSGYSITSDYNSHWIRQPPGKGLEWIGYIHYSGSTNYNPSLKSRVTISRDTSKNQFSLKLSSVTAADTAVYYCARNYDSIYVNYFDYWGQGTLVTVSS VL: EIVLTQSPATLSLSPGERATLSCSASSSVSYMYWYQQKPGQAPRPLIYRTSNLASGIPARFSGSGSGTDFTLTISSLEPEDFAVYYCQQYHSYPTFGGGTKVEIK | 0.46 | – | –
14 | SA301a HC-G97F (antibody, name in Kabat numbering, V domains shown, IgG1 kappa) VH: QVQLQESGPGLVKPSQTLSLTCTVSGYSITSDYNSHWIRQPPGKGLEWIGYIHYSGSTNYNPSLKSRVTISRDTSKNQFSLKLSSVTAADTAVYYCARNYFSIYVNYFDYWGQGTLVTVSS VL: EIVLTQSPATLSLSPGERATLSCSASSSVSYMYWYQQKPGQAPRPLIYRTSNLASGIPARFSGSGSGTDFTLTISSLEPEDFAVYYCQQYHSYPTFGGGTKVEIK | 6.32 | – | –
15 | SA301a HC-G97E (antibody, name in Kabat numbering, V domains shown, IgG1 kappa) VH: QVQLQESGPGLVKPSQTLSLTCTVSGYSITSDYNSHWIRQPPGKGLEWIGYIHYSGSTNYNPSLKSRVTISRDTSKNQFSLKLSSVTAADTAVYYCARNYESIYVNYFDYWGQGTLVTVSS VL: EIVLTQSPATLSLSPGERATLSCSASSSVSYMYWYQQKPGQAPRPLIYRTSNLASGIPARFSGSGSGTDFTLTISSLEPEDFAVYYCQQYHSYPTFGGGTKVEIK | 11.6 | – | –
16 | SA301a HC-G97I (antibody, name in Kabat numbering, V domains shown, IgG1 kappa) VH: QVQLQESGPGLVKPSQTLSLTCTVSGYSITSDYNSHWIRQPPGKGLEWIGYIHYSGSTNYNPSLKSRVTISRDTSKNQFSLKLSSVTAADTAVYYCARNYISIYVNYFDYWGQGTLVTVSS VL: EIVLTQSPATLSLSPGERATLSCSASSSVSYMYWYQQKPGQAPRPLIYRTSNLASGIPARFSGSGSGTDFTLTISSLEPEDFAVYYCQQYHSYPTFGGGTKVEIK | 7.83 | – | –
17 | SA301a HC-G97K (antibody, name in Kabat numbering, V domains shown, IgG1 kappa) VH: QVQLQESGPGLVKPSQTLSLTCTVSGYSITSDYNSHWIRQPPGKGLEWIGYIHYSGSTNYNPSLKSRVTISRDTSKNQFSLKLSSVTAADTAVYYCARNYKSIYVNYFDYWGQGTLVTVSS VL: EIVLTQSPATLSLSPGERATLSCSASSSVSYMYWYQQKPGQAPRPLIYRTSNLASGIPARFSGSGSGTDFTLTISSLEPEDFAVYYCQQYHSYPTFGGGTKVEIK | 1.46 | – | –
18 | SA301a HC-G97M (antibody, name in Kabat numbering, V domains shown, IgG1 kappa) VH: QVQLQESGPGLVKPSQTLSLTCTVSGYSITSDYNSHWIRQPPGKGLEWIGYIHYSGSTNYNPSLKSRVTISRDTSKNQFSLKLSSVTAADTAVYYCARNYMSIYVNYFDYWGQGTLVTVSS VL: EIVLTQSPATLSLSPGERATLSCSASSSVSYMYWYQQKPGQAPRPLIYRTSNLASGIPARFSGSGSGTDFTLTISSLEPEDFAVYYCQQYHSYPTFGGGTKVEIK | 0.19 | – | –
19 | SA301a HC-G97H (antibody, name in Kabat numbering, V domains shown, IgG1 kappa) VH: QVQLQESGPGLVKPSQTLSLTCTVSGYSITSDYNSHWIRQPPGKGLEWIGYIHYSGSTNYNPSLKSRVTISRDTSKNQFSLKLSSVTAADTAVYYCARNYHSIYVNYFDYWGQGTLVTVSS VL: EIVLTQSPATLSLSPGERATLSCSASSSVSYMYWYQQKPGQAPRPLIYRTSNLASGIPARFSGSGSGTDFTLTISSLEPEDFAVYYCQQYHSYPTFGGGTKVEIK | 1.57 | – | –
20 | SA301a HC-G97L (antibody, name in Kabat numbering, V domains shown, IgG1 kappa) VH: QVQLQESGPGLVKPSQTLSLTCTVSGYSITSDYNSHWIRQPPGKGLEWIGYIHYSGSTNYNPSLKSRVTISRDTSKNQFSLKLSSVTAADTAVYYCARNYLSIYVNYFDYWGQGTLVTVSS VL: EIVLTQSPATLSLSPGERATLSCSASSSVSYMYWYQQKPGQAPRPLIYRTSNLASGIPARFSGSGSGTDFTLTISSLEPEDFAVYYCQQYHSYPTFGGGTKVEIK | 3.7 | – | –
